Data from PMC5457524, “An engineered high affinity Fbs1 carbohydrate binding protein for selective capture of N-glycans and N-glycopeptides” (Nature Communications, 2017).
Numbering of substitutions follows the chain as printed. Names may count otherwise. No end group written: not given here. TMR = tetramethylrhodamine

T1: SNAP-Fbs1 fusion protein (wild-type human Fbs1 sugar-binding domain, residues 92-296) (human, UniProt Q9UK22 92-296)
T1 construct: Immobilised covalently through the SNAP tag on benzylguanine (BG) agarose beads in the bead assays; also called wt Fbs1; Fbs1 beads; source: NEB Express E. coli, purified (for Fbs1 beads and ITC); E. coli cell lysate (fetuin or RNase B bead pulldown); not shown: SNAP tag, N-terminal, kept
T1 sequence (looked up): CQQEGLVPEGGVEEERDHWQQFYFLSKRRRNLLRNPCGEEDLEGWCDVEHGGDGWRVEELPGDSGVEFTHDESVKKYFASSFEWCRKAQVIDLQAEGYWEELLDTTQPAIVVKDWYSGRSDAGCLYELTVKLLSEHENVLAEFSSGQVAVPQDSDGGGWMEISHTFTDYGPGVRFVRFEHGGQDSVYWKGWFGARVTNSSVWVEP

T2: fetuin (UniProt P12763 19-359, sialylated complex N-linked glycans)
T2 construct: fetuin; Denatured by boiling in Rapid PNGase F buffer, or on Affi-Gel 15 beads with 6 M guanidine-HCl; also called sialylated fetuin; fetuin beads; source: bought: New England Biolabs; denatured before the assay
T2 sequence (looked up): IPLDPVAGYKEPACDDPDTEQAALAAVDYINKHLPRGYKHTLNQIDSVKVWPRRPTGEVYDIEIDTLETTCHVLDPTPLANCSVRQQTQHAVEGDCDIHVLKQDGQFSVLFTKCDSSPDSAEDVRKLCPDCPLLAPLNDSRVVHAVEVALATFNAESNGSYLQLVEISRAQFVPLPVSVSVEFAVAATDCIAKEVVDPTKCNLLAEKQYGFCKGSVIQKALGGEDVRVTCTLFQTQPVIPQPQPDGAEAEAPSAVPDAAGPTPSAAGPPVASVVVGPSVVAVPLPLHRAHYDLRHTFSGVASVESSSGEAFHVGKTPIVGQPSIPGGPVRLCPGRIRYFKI

B1: sialylglycopeptide (SGP) (peptide)
peptide: KVAN(bi‑antennary complex N‑glycan, terminal sialic acids)KT
notes: naturally occurring glycopeptide of six amino acids; source: bought: Fushimi Pharmaceutical Co., Ltd
B2: SGP-TMR (SGP labelled with two TMR fluorophores on the lysines) (peptide)
peptide: K(TMR)VAN(bi‑antennary complex N‑glycan, terminal sialic acids)K(TMR)T
notes: peptide of SGP; also called glycopeptide 1
B3: SNAP-Fbs1 GYR variant (S155G, F173Y, E174R) (designed binder)
chain: T1 sequence (looked up) with S64G, F82Y, E83R
notes: numbered on the full-length human protein; source: E. coli, purified (for beads and N-glyco-FASP); E. coli cell lysate (fetuin bead pulldown); not shown: SNAP tag, N-terminal, kept
B4: SNAP-Fbs1 S155G mutant (domain or fragment, human, UniProt Q9UK22 92-296, looked up)
chain: T1 sequence (looked up) with S64G
notes: numbered on the full-length human protein; source: E. coli cell lysate; not shown: SNAP tag, N-terminal, kept
B5: SNAP-Fbs1 PPRYR variant (combination of PPR and YR) (designed binder)
chain: T1 sequence (looked up) with D63P, S64P, G65R, F82Y, E83R
notes: numbered on the full-length human protein; source: E. coli, purified (for beads); E. coli cell lysate (fetuin bead pulldown); not shown: SNAP tag, N-terminal, kept
B6: SNAP-Fbs1 S155A mutant (domain or fragment, human, UniProt Q9UK22 92-296, looked up)
chain: T1 sequence (looked up) with S64A
notes: as for B4
B7: RNase B (natural protein, UniProt P61823 27-150, looked up)
chain: KETAAAKFERQHMDSSTSAASSSNYCNQMMKSRNLTKDRCKPVNTFVHESLADVQAVCSQKNVACKNGQTNCYQSYSTMSITDCRETGSSKYPNCAYKTTQANKHIIVACEGNPYVPVHFDASV
modifications: a single site modified by a variety of high-mannose N-glycans
notes: RNase B, the N-glycosylated form of pancreatic ribonuclease; Denatured by boiling (SDS/DTT or Rapid PNGase F buffer), or on Affi-Gel 10 beads with 6 M guanidine-HCl; source: bought: New England Biolabs; denatured before the assay
B8: SGP-TMR without sialic acids, galactose and GlcNAc (peptide)
peptide: K(TMR)VAN(N‑glycan pentasaccharide core)K(TMR)T
notes: peptide of SGP; also called glycopeptide 4; source: SGP-TMR trimmed with α2-3,6,8 Neuraminidase, β1-4 Galactosidase S and β-N-Acetylglucosaminidase S
B9: SGP-TMR without sialic acids and galactose (peptide)
peptide: K(TMR)VANK(TMR)T
modifications: not fully specified (residue 4)
notes: peptide of SGP; also called glycopeptide 3; source: SGP-TMR trimmed with α2-3,6,8 Neuraminidase and β1-4 Galactosidase S

Experiments:
[1] = target: T1, SNAP-Fbs1 fusion protein (wild-type …); assay: ITC; 270 μM SGP injected into 27 μM SNAP-Fbs1; 20 mM Tris.HCl pH 7.5, 1 mM EDTA, 2 M NaCl (high salt); single site binding model; conditions: both partners purified
[2] = target: T1, SNAP-Fbs1 fusion protein (wild-type …); assay: ITC; 270 μM SGP injected into 27 μM SNAP-Fbs1; 20 mM Tris.HCl pH 7.5, 1 mM EDTA, 50 mM NaCl (low salt); single site binding model; conditions: both partners purified
[3] = target: B3; assay: affinity purification with mass spectrometry; wt Fbs1 or Fbs1 GYR enrichment from a tryptic digest of RNase B spiked with SGP and SGP-TMR; low salt (50 mM ammonium acetate, pH7.5); LC-MS, SGP-TMR by fluorescence; conditions: both partners purified
[4] = target: B3; assay: pull-down; wt or GYR SNAP-Fbs1 on BG beads; TMR-labelled glycopeptides; 4 °C, 1 h; bound amount from the TMR fluorescence left in the supernatant, given as recovery percentage; low salt (50 mM NaCl or 50 mM ammonium acetate pH 7.5) or high salt (2 M NaCl); conditions: both partners purified
fetuin = target: T2, fetuin; assay: pull-down; fetuin (Affi-Gel 15) or RNase B (Affi-Gel 10) beads, denatured with 6 M guanidine-HCl; E. coli cell lysate with wt or mutant SNAP-Fbs1; 20 mM Tris.HCl pH 7.5, 1 mM EDTA, 50 mM NaCl (low salt) or 2 M NaCl (high salt), 30% Protein-Free Blocking buffer; 4 °C, 1 h; SDS-PAGE, ImageJ; conditions: one partner purified
[5] = target: B3; assay: pull-down; wt, GYR or PPRYR SNAP-Fbs1 on BG beads; mixture of denatured fetuin and RNase B; low salt (50 mM ammonium acetate pH 7.5 named for Fig. 4a); 4 °C, 1 h; SDS-PAGE; conditions: both partners purified
[6] = target: T1, SNAP-Fbs1 fusion protein (wild-type …); assay: pull-down; wt or GYR SNAP-Fbs1 on BG beads; TMR-labelled glycopeptides; 4 °C, 1 h; bound amount from the TMR fluorescence left in the supernatant, given as recovery percentage; low salt (50 mM NaCl or 50 mM ammonium acetate pH 7.5) or high salt (2 M NaCl); conditions: both partners purified

Row | binding result [4] | fold change of the pulled-down amount against wt Fbs1 (fetuin) [fold] | Binder | other results
1 | – | – | B1 | Kd [1]: 1400 ± 40 nM; Kd [2]: 3000 nM; binding result [3]: binds
2 | binds | – | B2 | –
3 | – | ≥ 3.5 | B3 | –
4 | – | 2 | B4 | –
5 | – | ≥ 3.5 | B5 | –
6 | – | 1.5 | B6 | –
7 | – | – | B7 | binding result [5]: binds
8 | binds | – | B8 | fold improvement in recovery (against untrimmed SGP-TMR) [6]: ≥ 3 fold
9 | binds | – | B9 | –
